Data taken from PMC12416549 (2024).

T1: TNFR1 (Homo sapiens, UniProt P19438)
T1 chain: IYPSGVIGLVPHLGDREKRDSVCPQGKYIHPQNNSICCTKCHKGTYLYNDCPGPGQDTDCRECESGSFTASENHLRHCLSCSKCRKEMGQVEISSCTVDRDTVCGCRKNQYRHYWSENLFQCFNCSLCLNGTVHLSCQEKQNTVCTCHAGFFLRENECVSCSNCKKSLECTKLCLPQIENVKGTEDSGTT


Target: T1, TNFR1
Assay: yeast display SC50

| apparent Kd (screen) | Binder |
| --- | --- |
| 0.446 nM | V102G (designed binder) SMEEEVEKAAKEYEKKKKEAIEKHLEKLKAKDKEAAERFLKELEEAAKEYAKDEAKTMSEEEAKRRAKKYKEKVLLSELSEEEQKEIKEAEEKLVRTILKYGEEAAK |
| 4.39 nM | R96E (designed binder) SMEEEVEKAAKEYEKKKKEAIEKHLEKLKAKDKEAAERFLKELEEAAKEYAKDEAKTMSEEEAKRRAKKYKEKVLLSELSEEEQKEIKEAEEKLVETILKYVEEAAK |
| 11.4 nM | E91Q (designed binder) SMEEEVEKAAKEYEKKKKEAIEKHLEKLKAKDKEAAERFLKELEEAAKEYAKDEAKTMSEEEAKRRAKKYKEKVLLSELSEEEQKEIKEAQEKLVRTILKYVEEAAK |
| 0.956 nM | E89N (designed binder) SMEEEVEKAAKEYEKKKKEAIEKHLEKLKAKDKEAAERFLKELEEAAKEYAKDEAKTMSEEEAKRRAKKYKEKVLLSELSEEEQKEIKNAEEKLVRTILKYVEEAAK |
| 2.25 nM | A106L (designed binder) SMEEEVEKAAKEYEKKKKEAIEKHLEKLKAKDKEAAERFLKELEEAAKEYAKDEAKTMSEEEAKRRAKKYKEKVLLSELSEEEQKEIKEAEEKLVRTILKYVEEALK |
| 1.4 nM | A105C (designed binder) SMEEEVEKAAKEYEKKKKEAIEKHLEKLKAKDKEAAERFLKELEEAAKEYAKDEAKTMSEEEAKRRAKKYKEKVLLSELSEEEQKEIKEAEEKLVRTILKYVEECAK |
| 1.16 nM | V95N (designed binder) SMEEEVEKAAKEYEKKKKEAIEKHLEKLKAKDKEAAERFLKELEEAAKEYAKDEAKTMSEEEAKRRAKKYKEKVLLSELSEEEQKEIKEAEEKLNRTILKYVEEAAK |
| 0.539 nM | K88F (designed binder) SMEEEVEKAAKEYEKKKKEAIEKHLEKLKAKDKEAAERFLKELEEAAKEYAKDEAKTMSEEEAKRRAKKYKEKVLLSELSEEEQKEIFEAEEKLVRTILKYVEEAAK |
| 1.54 nM | K100E (designed binder) SMEEEVEKAAKEYEKKKKEAIEKHLEKLKAKDKEAAERFLKELEEAAKEYAKDEAKTMSEEEAKRRAKKYKEKVLLSELSEEEQKEIKEAEEKLVRTILEYVEEAAK |
| 0.79 nM | K93A (designed binder) SMEEEVEKAAKEYEKKKKEAIEKHLEKLKAKDKEAAERFLKELEEAAKEYAKDEAKTMSEEEAKRRAKKYKEKVLLSELSEEEQKEIKEAEEALVRTILKYVEEAAK |
| 15.2 nM | L99P (designed binder) SMEEEVEKAAKEYEKKKKEAIEKHLEKLKAKDKEAAERFLKELEEAAKEYAKDEAKTMSEEEAKRRAKKYKEKVLLSELSEEEQKEIKEAEEKLVRTIPKYVEEAAK |
| 16.7 nM | L94P (designed binder) SMEEEVEKAAKEYEKKKKEAIEKHLEKLKAKDKEAAERFLKELEEAAKEYAKDEAKTMSEEEAKRRAKKYKEKVLLSELSEEEQKEIKEAEEKPVRTILKYVEEAAK |

More lines, now with the values behind:

| Binder | apparent Kd (screen) |
| --- | --- |
| Y50C (designed binder) SMEEEVEKAAKEYEKKKKEAIEKHLEKLKAKDKEAAERFLKELEEAAKECAKDEAKTMSEEEAKRRAKKYKEKVLLSELSEEEQKEIKEAEEKLVRTILKYVEEAAK | 0.956 nM |
| M58P (designed binder) SMEEEVEKAAKEYEKKKKEAIEKHLEKLKAKDKEAAERFLKELEEAAKEYAKDEAKTPSEEEAKRRAKKYKEKVLLSELSEEEQKEIKEAEEKLVRTILKYVEEAAK | 0.653 nM |
| S80K (designed binder) SMEEEVEKAAKEYEKKKKEAIEKHLEKLKAKDKEAAERFLKELEEAAKEYAKDEAKTMSEEEAKRRAKKYKEKVLLSELKEEEQKEIKEAEEKLVRTILKYVEEAAK | 1.54 nM |
| E22C (designed binder) SMEEEVEKAAKEYEKKKKEAICKHLEKLKAKDKEAAERFLKELEEAAKEYAKDEAKTMSEEEAKRRAKKYKEKVLLSELSEEEQKEIKEAEEKLVRTILKYVEEAAK | 1.05 nM |
| S77V (designed binder) SMEEEVEKAAKEYEKKKKEAIEKHLEKLKAKDKEAAERFLKELEEAAKEYAKDEAKTMSEEEAKRRAKKYKEKVLLVELSEEEQKEIKEAEEKLVRTILKYVEEAAK | 2.73 nM |
| A51S (designed binder) SMEEEVEKAAKEYEKKKKEAIEKHLEKLKAKDKEAAERFLKELEEAAKEYSKDEAKTMSEEEAKRRAKKYKEKVLLSELSEEEQKEIKEAEEKLVRTILKYVEEAAK | 1.86 nM |
| A35N (designed binder) SMEEEVEKAAKEYEKKKKEAIEKHLEKLKAKDKENAERFLKELEEAAKEYAKDEAKTMSEEEAKRRAKKYKEKVLLSELSEEEQKEIKEAEEKLVRTILKYVEEAAK | 1.69 nM |
| E12D (designed binder) SMEEEVEKAAKDYEKKKKEAIEKHLEKLKAKDKEAAERFLKELEEAAKEYAKDEAKTMSEEEAKRRAKKYKEKVLLSELSEEEQKEIKEAEEKLVRTILKYVEEAAK | 1.05 nM |
| L76P (designed binder) SMEEEVEKAAKEYEKKKKEAIEKHLEKLKAKDKEAAERFLKELEEAAKEYAKDEAKTMSEEEAKRRAKKYKEKVLPSELSEEEQKEIKEAEEKLVRTILKYVEEAAK | 1.54 nM |
| T57N (designed binder) SMEEEVEKAAKEYEKKKKEAIEKHLEKLKAKDKEAAERFLKELEEAAKEYAKDEAKNMSEEEAKRRAKKYKEKVLLSELSEEEQKEIKEAEEKLVRTILKYVEEAAK | 2.05 nM |
| K68S (designed binder) SMEEEVEKAAKEYEKKKKEAIEKHLEKLKAKDKEAAERFLKELEEAAKEYAKDEAKTMSEEEAKRRASKYKEKVLLSELSEEEQKEIKEAEEKLVRTILKYVEEAAK | 0.718 nM |
| S1G (designed binder) GMEEEVEKAAKEYEKKKKEAIEKHLEKLKAKDKEAAERFLKELEEAAKEYAKDEAKTMSEEEAKRRAKKYKEKVLLSELSEEEQKEIKEAEEKLVRTILKYVEEAAK | 0.653 nM |
| R66Q (designed binder) SMEEEVEKAAKEYEKKKKEAIEKHLEKLKAKDKEAAERFLKELEEAAKEYAKDEAKTMSEEEAKRQAKKYKEKVLLSELSEEEQKEIKEAEEKLVRTILKYVEEAAK | 11.4 nM |
| M58G (designed binder) SMEEEVEKAAKEYEKKKKEAIEKHLEKLKAKDKEAAERFLKELEEAAKEYAKDEAKTGSEEEAKRRAKKYKEKVLLSELSEEEQKEIKEAEEKLVRTILKYVEEAAK | 22.2 nM |
| K27W (designed binder) SMEEEVEKAAKEYEKKKKEAIEKHLEWLKAKDKEAAERFLKELEEAAKEYAKDEAKTMSEEEAKRRAKKYKEKVLLSELSEEEQKEIKEAEEKLVRTILKYVEEAAK | 1.16 nM |
| K41G (designed binder) SMEEEVEKAAKEYEKKKKEAIEKHLEKLKAKDKEAAERFLGELEEAAKEYAKDEAKTMSEEEAKRRAKKYKEKVLLSELSEEEQKEIKEAEEKLVRTILKYVEEAAK | 0.869 nM |
| K73D (designed binder) SMEEEVEKAAKEYEKKKKEAIEKHLEKLKAKDKEAAERFLKELEEAAKEYAKDEAKTMSEEEAKRRAKKYKEDVLLSELSEEEQKEIKEAEEKLVRTILKYVEEAAK | 5.84 nM |
| A47N (designed binder) SMEEEVEKAAKEYEKKKKEAIEKHLEKLKAKDKEAAERFLKELEEANKEYAKDEAKTMSEEEAKRRAKKYKEKVLLSELSEEEQKEIKEAEEKLVRTILKYVEEAAK | 1.4 nM |
| E44P (designed binder) SMEEEVEKAAKEYEKKKKEAIEKHLEKLKAKDKEAAERFLKELPEAAKEYAKDEAKTMSEEEAKRRAKKYKEKVLLSELSEEEQKEIKEAEEKLVRTILKYVEEAAK | 6.43 nM |
| E5G (designed binder) SMEEGVEKAAKEYEKKKKEAIEKHLEKLKAKDKEAAERFLKELEEAAKEYAKDEAKTMSEEEAKRRAKKYKEKVLLSELSEEEQKEIKEAEEKLVRTILKYVEEAAK | 0.446 nM |
| K52A (designed binder) SMEEEVEKAAKEYEKKKKEAIEKHLEKLKAKDKEAAERFLKELEEAAKEYAADEAKTMSEEEAKRRAKKYKEKVLLSELSEEEQKEIKEAEEKLVRTILKYVEEAAK | 0.49 nM |
| L79F (designed binder) SMEEEVEKAAKEYEKKKKEAIEKHLEKLKAKDKEAAERFLKELEEAAKEYAKDEAKTMSEEEAKRRAKKYKEKVLLSEFSEEEQKEIKEAEEKLVRTILKYVEEAAK | 2.05 nM |
| L43A (designed binder) SMEEEVEKAAKEYEKKKKEAIEKHLEKLKAKDKEAAERFLKEAEEAAKEYAKDEAKTMSEEEAKRRAKKYKEKVLLSELSEEEQKEIKEAEEKLVRTILKYVEEAAK | 0.49 nM |
